We go through nine molecules from US20140193915, “COMPOSITIONS AND METHODS FOR CUSTOM SITE-SPECIFIC DNA RECOMBINASES” (Monsanto Technology, LLC, published 2014).

The target of data set [1] is T1, pN-TALER IV-1-EE2 (GinL7C7-EE2-TALE13) (synthetic).
T1 chain: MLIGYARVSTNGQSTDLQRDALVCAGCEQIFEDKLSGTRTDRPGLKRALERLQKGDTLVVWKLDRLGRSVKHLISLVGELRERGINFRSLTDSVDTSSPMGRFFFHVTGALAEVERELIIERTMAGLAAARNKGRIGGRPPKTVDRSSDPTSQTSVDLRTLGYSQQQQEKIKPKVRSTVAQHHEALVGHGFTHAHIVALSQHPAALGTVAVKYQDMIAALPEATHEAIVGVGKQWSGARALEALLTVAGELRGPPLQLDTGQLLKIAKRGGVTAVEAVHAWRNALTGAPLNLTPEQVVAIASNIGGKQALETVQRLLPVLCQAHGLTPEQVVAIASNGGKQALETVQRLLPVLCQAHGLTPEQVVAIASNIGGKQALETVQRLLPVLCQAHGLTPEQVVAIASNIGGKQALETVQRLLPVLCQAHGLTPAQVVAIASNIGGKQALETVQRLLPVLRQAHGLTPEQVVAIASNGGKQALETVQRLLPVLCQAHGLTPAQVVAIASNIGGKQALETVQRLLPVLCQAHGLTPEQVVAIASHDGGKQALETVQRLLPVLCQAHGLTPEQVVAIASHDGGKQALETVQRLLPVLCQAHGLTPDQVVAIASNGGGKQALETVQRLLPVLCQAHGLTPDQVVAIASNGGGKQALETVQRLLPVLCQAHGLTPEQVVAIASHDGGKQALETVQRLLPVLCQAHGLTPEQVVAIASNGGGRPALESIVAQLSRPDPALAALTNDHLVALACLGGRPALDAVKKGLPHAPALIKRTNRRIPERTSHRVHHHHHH
Nature of the data set: cell_activity; E. coli. The following applies: tags: 6-His. As for the experimental part:
(§1) To test for recombination, E. coli DH5alpha cells were co-transformed with different combinations of TALER expression construct and TALER reporter construct pairs (Tables 6 and 7). The N-TALER expression and reporter constructs were in an approximate 1:1 mass ratio during the transformation. The co-transformed bacteria were plated on media with chloramphenicol, kanamycin, and X-gal then incubated at 37° C. for 18 to 36 hours. Control samples consisted of transformations using the reporter construct alone. Control transformants were similarly plated. The bacterial transformation protocol was either heat shock or electroporation per standard molecular biology techniques.
Two additional N-TALERs, based on N-TALER IV-1, were constructed wherein the GinH106Y recombinase catalytic domain was replaced with either the GinL7C7-EE2 catalytic domain or the GinL7C7-EE3 permissive recombinase catalytic domain. These N-TALERs were labeled pN-TALER IV-1-EE2 (SEQ ID NO:41) and pN-TALER IV-1-EE3 (SEQ ID NO:45), respectively. pN-TALER IV-1-EE2 was tested in combination with seventeen N-TALER reporter constructs and pN-TALER IV-1-EE3 was tested with three reporter constructs (Table 10).

Data set [2] addresses T2, sN-TALER IV-2 (GinH106Y-TALE13) (synthetic).
T2 chain: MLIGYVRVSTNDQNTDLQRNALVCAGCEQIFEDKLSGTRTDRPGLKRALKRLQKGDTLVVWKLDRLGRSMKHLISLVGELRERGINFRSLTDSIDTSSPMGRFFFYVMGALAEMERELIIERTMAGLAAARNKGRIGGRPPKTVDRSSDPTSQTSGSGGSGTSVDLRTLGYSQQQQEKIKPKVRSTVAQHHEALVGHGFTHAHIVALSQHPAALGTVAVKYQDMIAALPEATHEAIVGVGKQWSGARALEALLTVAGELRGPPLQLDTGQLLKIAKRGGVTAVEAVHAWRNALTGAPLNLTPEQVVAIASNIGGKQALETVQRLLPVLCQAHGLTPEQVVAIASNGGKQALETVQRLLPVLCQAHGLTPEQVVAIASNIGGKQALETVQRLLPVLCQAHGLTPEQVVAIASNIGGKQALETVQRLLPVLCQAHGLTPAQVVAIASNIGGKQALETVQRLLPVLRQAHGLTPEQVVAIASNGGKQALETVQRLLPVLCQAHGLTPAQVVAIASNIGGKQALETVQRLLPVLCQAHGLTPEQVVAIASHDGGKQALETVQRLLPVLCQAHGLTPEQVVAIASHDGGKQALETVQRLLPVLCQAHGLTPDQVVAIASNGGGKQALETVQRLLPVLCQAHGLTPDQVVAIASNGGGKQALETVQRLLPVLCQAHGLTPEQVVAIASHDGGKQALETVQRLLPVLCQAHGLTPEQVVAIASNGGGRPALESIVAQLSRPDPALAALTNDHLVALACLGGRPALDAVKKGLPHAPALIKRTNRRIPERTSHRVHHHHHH
Nature of the data set: cell_activity; E. coli. The conditions noted are these: tags: 6-His. As for the experimental part:
as §1

The target of data set [3] is T3, sN-TALER IV-1 (GinH106Y-TALE13) (synthetic).
T3 chain: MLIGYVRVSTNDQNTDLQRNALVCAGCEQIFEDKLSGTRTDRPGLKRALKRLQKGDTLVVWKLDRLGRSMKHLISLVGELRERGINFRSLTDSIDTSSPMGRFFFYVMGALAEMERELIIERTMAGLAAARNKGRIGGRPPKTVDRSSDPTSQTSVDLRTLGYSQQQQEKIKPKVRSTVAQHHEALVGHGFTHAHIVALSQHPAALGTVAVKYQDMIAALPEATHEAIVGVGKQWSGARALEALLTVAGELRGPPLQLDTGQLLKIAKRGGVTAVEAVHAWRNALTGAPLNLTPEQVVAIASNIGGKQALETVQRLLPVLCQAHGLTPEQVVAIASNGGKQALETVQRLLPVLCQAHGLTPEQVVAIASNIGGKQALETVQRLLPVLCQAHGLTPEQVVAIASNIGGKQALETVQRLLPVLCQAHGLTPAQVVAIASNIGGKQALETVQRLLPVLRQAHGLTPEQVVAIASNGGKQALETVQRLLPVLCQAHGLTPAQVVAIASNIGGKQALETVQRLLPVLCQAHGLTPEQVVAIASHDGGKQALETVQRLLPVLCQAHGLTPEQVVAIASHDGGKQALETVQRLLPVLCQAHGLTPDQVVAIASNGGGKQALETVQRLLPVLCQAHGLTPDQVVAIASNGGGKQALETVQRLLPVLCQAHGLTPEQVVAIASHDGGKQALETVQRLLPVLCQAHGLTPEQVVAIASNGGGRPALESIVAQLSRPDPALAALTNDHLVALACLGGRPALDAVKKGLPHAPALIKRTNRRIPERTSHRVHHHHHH
In words: cell_activity; E. coli. The following applies: tags: 6-His; chain copies: 2 per site, tetramer in synapsis (stated). As for the experimental part: as §1

In data set [4] the target is T3, sN-TALER IV-1 (GinH106Y-TALE13). In words: cell_activity; E. coli; sequenced. The following applies: tags: 6-His; chain copies: 2 per site, tetramer in synapsis (stated). As for the experimental part:
as §1
PCR was used to confirm that the predicted recombination had occurred in colonies which were white or sectored. PCR primers were designed so that a PCR product of approximately 877 bp (depending on the length of the spacers) would be produced from the non-recombined reporter constructs, and a PCR product of approximately 470 bp would be produced from reporter constructs that had undergone N-TALER-mediated recombination. Standard colony PCR was performed on white, blue, and sectored colonies from several plates representing different pairs of N-TALER expression construct and reporter construct co-transformation combinations.
To confirm that the recombination occurred as predicted, several of the PCR products were sequenced. Sequencing results for PCR products generated from white colonies from the sN-TALER IV-1 and Gin18TALE+1; sN-TALER IV-1 and Gin20TALE+0; or sN-TALER IV-1 and Gin20TALE+10 reporter constructs are shown in FIG. 7. No mismatches were detected relative to the predicted recombinase core sequence in any of the PCR products sequenced thereby confirming a base-perfect recombination with N-TALERs (the few single-nucleotide mismatches detected in the sN-TALER IV-1 and Gin20TALE+0 combination were rechecked and consequently dismissed as sequencing error).

Data set [5] addresses T1, pN-TALER IV-1-EE2 (GinL7C7-EE2-TALE13). In words: cell_activity; E. coli. The conditions noted are these: tags: 6-His. The source says:
To determine how much of the Gin20 sequence is required for recombination when the central sequence is maintained at a permitted length, N-TALER reporters were generated with a 20 bp recombinase central sequence between the TALE binding sites, where either the central 12 bp, or the central 10 bp, or the central 8 bp of the recombinase core sequence were held constant, and the remaining nucleotides were different from the Gin sequence. The N-TALER reporter with 12 bp was designated R45, the N-TALER reporter with 10 bp was designated R46, and the N-TALER reporter with 8 bp was designated R47. A N-TALER reporter with a 10 bp site 1 and a 12 bp site 2 was designated R46B, and a N-TALER reporter with a T and an A flanking the central AT di-nucleotide was designated R48 (see Table 33). The various reporters, including the pSC101 Gin20TALE13+0 were co-transformed with either sN-TALER-IV-1 or pN-TALER-IV-1 and recombination, as determined by colony color, was scored (Table 33). For purposes of comparison, the GinE site that was used in the generation of the GinL7C7-EE2 recombinase domain (Gersbach et al., 2010) was also included.
To confirm that white colonies resulted from recombination, the colonies were analyzed by colony PCR and sequencing of the PCR product. For the reporter that retained 12 bp from the Gin site, 8 of 8 colonies analyzed had the predicted recombination product for both the sN-TALER-IV-1 chimera and the pN-TALER-IV-1chimera (16 colonies total analyzed, 8 each). Likewise, for the reporter that retained 8 bp from the Gin site co-transformed with the pN-TALER-IV-1 chimera, 14 of 14 colonies analyzed had the predicted recombination product.

B1: Gin20TALE+1 (dsDNA)
DNA 1: AGAAGGTATTTATATTCCAAAACCATGGTTTACAGATATAAATACCTTCT
DNA 2: AGAAGGTATTTATATCTGTAAACCATGGTTTTGGAATATAAATACCTTCT
As to B1, the activity was 1 score in data set [1], 1 score in data set [2] and 2 score in data set [3].

B2: Gin20TALE+6 (dsDNA)
DNA 1: AGAAGGTATTTATATAGTTATCCAAAACCATGGTTTACAGGACGTATATAAATACCTTCT
DNA 2: AGAAGGTATTTATATACGTCCTGTAAACCATGGTTTTGGATAACTATATAAATACCTTCT
Take B2: the activity in data set [1] was found to be 2 score.

B3: Gin20TALE+7 (dsDNA)
DNA 1: AGAAGGTATTTATATAGGTTATCCAAAACCATGGTTTACAGGACGGTATATAAATACCTTCT
DNA 2: AGAAGGTATTTATATACCGTCCTGTAAACCATGGTTTTGGATAACCTATATAAATACCTTCT
B3: the activity in data set [1] amounted to 2.5 score.

B4: Gin20TALE+10 (dsDNA)
DNA 1: AGAAGGTATTTATATAGGCACTTATCCAAAACCATGGTTTACAGGACCACGGTATATAAATACCTTCT
DNA 2: AGAAGGTATTTATATACCGTGGTCCTGTAAACCATGGTTTTGGATAAGTGCCTATATAAATACCTTCT
With B4, the activity in data set [4] is 1.5 score; in data set [1], 1 score; in data set [2], 1 score.

B5: Gin20TALE+4 (dsDNA)
DNA 1: AGAAGGTATTTATATATATCCAAAACCATGGTTTACAGGCTATATAAATACCTTCT
DNA 2: AGAAGGTATTTATATAGCCTGTAAACCATGGTTTTGGATATATATAAATACCTTCT
For the molecule B5, the activity in data set [1] turned out to be 1.5 score; in data set [2] it was 4 score.

B6: Gin20TALE+2 (dsDNA)
DNA 1: AGAAGGTATTTATATATCCAAAACCATGGTTTACAGTATATAAATACCTTCT
DNA 2: AGAAGGTATTTATATACTGTAAACCATGGTTTTGGATATATAAATACCTTCT
Consider B6, for which the activity in data set [1] was found to be 1 score; in data set [3] it was 3 score.

B7: R47 (8bp) (dsDNA)
DNA 1: AGAAGGTATTTATATCTCTGACCATGGTCACACTTATAAATACCTTCT
DNA 2: AGAAGGTATTTATAAGTGTGACCATGGTCAGAGATATAAATACCTTCT
In the case of B7, the activity in data set [5] is 1.5 score.

B8: Gin20TALE+3 (dsDNA)
DNA 1: AGAAGGTATTTATATAATCCAAAACCATGGTTTACAGGTATATAAATACCTTCT
DNA 2: AGAAGGTATTTATATACCTGTAAACCATGGTTTTGGATTATATAAATACCTTCT
For B8, the activity came to 1 score in data set [1], 3 score in data set [2] and 3 score in data set [3].

B9: Gin20TALE+9 (dsDNA)
DNA 1: AGAAGGTATTTATATAGGCATTATCCAAAACCATGGTTTACAGGACACGGTATATAAATACCTTCT
DNA 2: AGAAGGTATTTATATACCGTGTCCTGTAAACCATGGTTTTGGATAATGCCTATATAAATACCTTCT
As to B9, the activity in data set [1] and in data set [3] was 2 score in each case.
